Target: c-Src SH2
Test: SH2 binding enrichment of the phosphorylated peptide, bacterial display (enrichment ratio); higher = better substrate or ligand; peptides without Tyr show the background
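Note: peptide library displayed on the E. coli surface as eCPX fusions, selected cells deep-sequenced, score is each peptide's frequency after selection divided by its frequency in the input.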

Sequence	SH2 binding enrichment
FKGKNYKPLDL [RPL35_Y78_K77N_YF]	0.613
LAETSYVIVLE [MAGEA1_Y276_K278I]	0.479
ITVCDYTNPCT [MYD88_Y276]	0.701
NCFKFYMSDDI [ATRX_Y204_YF]	0.689
RLLVIYPWTQR [HBG2_Y36_V35I]	1.31
AEEEIYGEFEA [Src_opt_1995]	0.483
VDDEIYFFRKP [PBRM1_Y1289_YF]	0.466
FSNPAYYVLEG [INPPL1_Y986_N982S]	4.44
DYTEAYNSKIK [CLK1_Y305_P307S]	1
IEENGYNTFAS [FGF10_Y161_YF]	1.45
LTECGYSFTTT [ACTB_Y198_R196C]	0.736
LEKRAYICAHP [ACAD9_Y611]	0.442
YAREGYSALPQ [SARS2_Y52]	0.552
KAESWYQTKYE [KRT75_Y342_E337K]	0.479
FECKWYIPLTD [BCR_Y756_D752E_YF]	0.561
CTTIYYNYMCN [TP53_Y234_H233Y]	3.1
TTICKYSTPME [GUCY2C_Y839]	1.05
TPTYPYLLPKS [PLD2_Y580]	0.62
HSLLQYGGSAN [ANK1_Y624_R619H]	0.367
QPDLLYDHIQP [TRRAP_Y862_F860L]	0.832

Other lines, results leading:

SH2 binding enrichment	Sequence
0.653	QQIFTYDSGIH [JUP_Y22_T19I_YF]
0.584	VKPENDRRLDI [VHL_Y175_Y175D]
0.811	SRDTRYLVLAV [AMH_Y195]
0.665	EEGRVYVFRLS [ITGAE_Y549_YF]
0.574	DPLLTYLFPPK [LMNA_Y481_R482L]
0.556	VDTGVYAVPPP [BCAR1_Y410_S407T]
1.15	SLLLSYFLIKW [NUP160_Y773_P768S_YF]
1.24	AERKLYRNVML [ZNF569_Y33_Q29E]
0.606	VGRVGYVSGWG [HP_Y280]
1.77	SLDHPYEKPRK [INAVA_Y333]
0.556	ADNSAYLMGLN [MYH7_Y386_K383N]
0.425	TGDFGYRAPGY [TNS2_Y668]
0.573	NPQKSYFILLY [WAS_Y83_R86L]

Target: Grb2 SH2 (UniProt P62993)
Test: as above

Sequence	SH2 binding enrichment
FKGKNYKPLDL [RPL35_Y78_K77N_YF]	0.962
LAETSYVIVLE [MAGEA1_Y276_K278I]	0.641
ITVCDYTNPCT [MYD88_Y276]	0.968
NCFKFYMSDDI [ATRX_Y204_YF]	0.973
RLLVIYPWTQR [HBG2_Y36_V35I]	1.97
AEEEIYGEFEA [Src_opt_1995]	0.774
VDDEIYFFRKP [PBRM1_Y1289_YF]	0.75
FSNPAYYVLEG [INPPL1_Y986_N982S]	0.918
DYTEAYNSKIK [CLK1_Y305_P307S]	0.587
IEENGYNTFAS [FGF10_Y161_YF]	0.749
LTECGYSFTTT [ACTB_Y198_R196C]	0.574
LEKRAYICAHP [ACAD9_Y611]	0.8
YAREGYSALPQ [SARS2_Y52]	0.901
KAESWYQTKYE [KRT75_Y342_E337K]	0.805
FECKWYIPLTD [BCR_Y756_D752E_YF]	0.685
CTTIYYNYMCN [TP53_Y234_H233Y]	3.51
TTICKYSTPME [GUCY2C_Y839]	0.924
TPTYPYLLPKS [PLD2_Y580]	0.768
HSLLQYGGSAN [ANK1_Y624_R619H]	0.862
QPDLLYDHIQP [TRRAP_Y862_F860L]	0.733

The next lines start with the values.

SH2 binding enrichment	Sequence
0.936	QQIFTYDSGIH [JUP_Y22_T19I_YF]
1.12	VKPENDRRLDI [VHL_Y175_Y175D]
1.13	SRDTRYLVLAV [AMH_Y195]
1.05	EEGRVYVFRLS [ITGAE_Y549_YF]
0.991	DPLLTYLFPPK [LMNA_Y481_R482L]
0.775	VDTGVYAVPPP [BCAR1_Y410_S407T]
1.3	SLLLSYFLIKW [NUP160_Y773_P768S_YF]
1.76	AERKLYRNVML [ZNF569_Y33_Q29E]
0.809	VGRVGYVSGWG [HP_Y280]
0.852	SLDHPYEKPRK [INAVA_Y333]
0.993	ADNSAYLMGLN [MYH7_Y386_K383N]
0.747	TGDFGYRAPGY [TNS2_Y668]
0.914	NPQKSYFILLY [WAS_Y83_R86L]

— the supplement of paper PMC10065799, “High-throughput profiling of sequence recognition by tyrosine kinases and SH2 domains using bacterial peptide display” (eLife, 2023)
